Reference: patent publication US20260116987A1 (Gilead, published 2026)

Key:
[1] = target: T1, Human CCR8 (C-C chemokine receptor type 8) expressed on CHO-S cells (human, UniProt P51685 1-355); test: flow cytometry on CHO cells expressing CCR8, EC50 column
T1 construct: also called huCCR8; human CCR8-expressing CHO-S cells
Experimental: CCR8 binding was determined using flow cytometry according to the same methods used in Example 4, Briefly, antibodies were screened for specific binding to human CCR8 by flow cytometry using human CCR8-overexpressing and parental CHO—S cell line. Antibodies specifically binding to human CCR8 were also tested for binding to CCR4 by flow cytometry.

[2] = target: T1, Human CCR8 (C-C chemokine receptor type …); test: flow cytometry epitope binning, tandem format, human CCR8-overexpressing cells; competitor 6-B09
Experimental: (§1) A subset of antibodies against human CCR8 were epitope binned using flow cytometry method in tandem format. Briefly, one set of antibodies was biotinylated. Human CCR8-overexpressing cells were incubated at 4° C., with the non-biotinylated antibodies at 10 μg/mL for 1 hour, then without washing the biotinylated antibodies were added at 10 μg/mL. After a further 1-hour incubation, cells were washed three times and then stained with streptavidin-phycoerythrin (PE-strep) secondary antibody for 30 minutes. Binding competition was determined by detecting PE by flow cytometry. The response values were normalized as the % of the maximum binding of the individual antibody.

[3] = target: T2, Human CCR8 on human CCR8-overexpression lipoparticles (human, UniProt P51685 1-355); test: sequential format ELISA on human CCR8-overexpression lipoparticles; competitor 7-B16
T2 sequence (P51685 whole entry): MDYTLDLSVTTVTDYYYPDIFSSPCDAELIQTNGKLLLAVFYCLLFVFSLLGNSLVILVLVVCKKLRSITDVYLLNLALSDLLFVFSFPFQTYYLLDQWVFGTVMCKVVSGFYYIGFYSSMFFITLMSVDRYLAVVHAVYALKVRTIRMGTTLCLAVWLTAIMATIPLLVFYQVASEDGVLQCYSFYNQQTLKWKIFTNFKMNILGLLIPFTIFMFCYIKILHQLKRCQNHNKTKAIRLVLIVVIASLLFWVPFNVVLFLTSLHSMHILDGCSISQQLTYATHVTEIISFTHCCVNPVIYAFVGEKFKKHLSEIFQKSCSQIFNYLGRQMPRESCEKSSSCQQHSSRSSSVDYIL

[4] = target: T2, Human CCR8 on human CCR8-overexpression …; test: sequential format ELISA on human CCR8-overexpression lipoparticles; competitor 6-B09
[5] = target: T3, Human CCR4 expressed on CHO-S cells (human, UniProt P51679 1-360); test: flow cytometry
T3 construct: whole, on cells; also called CCR4-expressing CHO-S cells
T3 sequence (looked up): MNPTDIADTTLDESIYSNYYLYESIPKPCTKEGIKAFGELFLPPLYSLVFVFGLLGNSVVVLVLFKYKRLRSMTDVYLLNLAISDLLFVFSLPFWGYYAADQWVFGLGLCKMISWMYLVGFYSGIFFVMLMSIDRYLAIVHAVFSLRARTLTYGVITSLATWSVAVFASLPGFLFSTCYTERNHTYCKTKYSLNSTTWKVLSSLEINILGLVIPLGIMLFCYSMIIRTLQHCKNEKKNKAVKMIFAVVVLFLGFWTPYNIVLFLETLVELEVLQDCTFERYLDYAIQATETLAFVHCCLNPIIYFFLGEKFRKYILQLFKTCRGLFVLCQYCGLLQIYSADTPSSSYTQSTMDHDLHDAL

[6] = target: T1, Human CCR8 (C-C chemokine receptor type …); test: cell-based or functional assay
[7] = target: T2, Human CCR8 on human CCR8-overexpression …; test: sequential format ELISA on human CCR8-overexpression lipoparticles; competitor 1-K17
[8] = target: T2, Human CCR8 on human CCR8-overexpression …; test: sequential format ELISA on human CCR8-overexpression lipoparticles; competitor 19-O07
[9] = target: T2, Human CCR8 on human CCR8-overexpression …; test: sequential format ELISA on human CCR8-overexpression lipoparticles; competitor 1-K16
[10] = target: T1, Human CCR8 (C-C chemokine receptor type …); test: flow cytometry epitope binning, tandem format, human CCR8-overexpressing cells; competitor 7-B16
Experimental: as §1

[11] = target: T1, Human CCR8 (C-C chemokine receptor type …); test: flow cytometry epitope binning, tandem format, human CCR8-overexpressing cells; competitor 1-K16
Experimental: as §1

[12] = target: T1, Human CCR8 (C-C chemokine receptor type …); test: flow cytometry epitope binning, tandem format, human CCR8-overexpressing cells; competitor 1-K17
Experimental: as §1

[13] = target: T1, Human CCR8 (C-C chemokine receptor type …); test: flow cytometry epitope binning, tandem format, human CCR8-overexpressing cells; competitor 19-O07
Experimental: as §1

[14] = target: T1, Human CCR8 (C-C chemokine receptor type …); test: cell-based or functional assay; remark: listed apart in the source
[15] = target: T3, Human CCR4 expressed on CHO-S cells; test: flow cytometry (PE-A), human CCR4-expressing CHO-S cells against parental CHO-S cells; antibody concentration not given

T1 sequence (P51685 whole entry): as the sequence (P51685 whole entry) above

Binder | binding result [1] | % of the maximum binding [2] [%] | ELISA epitope binning signal [3] | ELISA epitope binning signal [4] | binding result [5] | IC50, antagonist activity in DiscoverX PathHunter beta-arrestin assay with 13.7 nM human CCL1 [6] [µg/mL] | ELISA epitope binning signal [7] | ELISA epitope binning signal [8] | ELISA epitope binning signal [9] | % of the maximum binding [10] [%] | % of the maximum binding [11] [%] | % of the maximum binding [12] [%] | % of the maximum binding [13] [%] | EC50 of ADCC function (Promega ADCC reporter bioassay) [14] [µg/mL] | binding result [15]
7B16-H1.001 (CDR H1 swapped mutant of 7-B16) (antibody, V domains shown, also called CDR swapped variant H1) VH: EVQLVESGGGLVQPKGSLKLSCAASGFTFSGSAMHWVRQAPGKGLEWVARIRSKSNNYATYYADSVKDRFTISRDDSQSMLYLQMNNLKTEDTAMYYCVRGLLRYRFFDVWGAGTTVTVSS VL: DIVMTQAEPSVPVTPGESISISCRSSKSLLHSNGNTYLYWFLQRPGQSPQLLIYRMSNLASGVPDRFSGSGSGTAFTLRISRVEAEDVGVYYCMQHLEYPFTFGGGTKLEIKR | no binding |  |  |  |  |  |  |  |  |  |  |  |  |  | 
1-K16 chimera (human IgG1) (antibody, also called 1-K16 chimeric antibody) heavy: not shown light: DIVMTQAAPSVPVTPGESVSISCRSSKSLLHSNGNTYLYWFLQRPGQSPQLLIYRMSNLASGVPDRFSGSGSGTAFTLRISRVEAEDVGVYYCMQHLEYPFTFGAGTKLELKRTVAAPSVFIFPPSDEQLKSGTASVVCLLNNFYPREAKVQWKVDNALQSGNSQESVTEQDSKDSTYSLSSTLTLSKADYEKHKVYACEVTHQGLSSPVTKSFNRGEC |  | 167 | 0.758 | 0.964 | no binding | 4.55 | 0.794 | 1.49 | 0.264 | 88 | 31 | 32 | 149 |  | 
13-E16 chimera (human IgG1) (antibody, also called 13-E16 chimeric antibody) heavy: not shown light: QIVLTQSPAIMSASPGEKVTITCSASSSVSYMHWFQQKPGTSPKLWIYSTSNLASGVPARFSGSGSGTSYFLTISRMEAEDAATYYCQQRSSYPYTFGGGTKLERKRTVAAPSVFIFPPSDEQLKSGTASVVCLLNNFYPREAKVQWKVDNALQSGNSQESVTEQDSKDSTYSLSSTLTLSKADYEKHKVYACEVTHQGLSSPVTKSFNRGEC |  |  |  |  | no binding | 12.6 |  |  |  |  |  |  |  | 0.0549 | 
19-O07 chimera (human IgG1) (antibody, also called 19-007; 19-O07 chimeric antibody) heavy: not shown light: DVVMTQTPLTLSVTIGQPASISCKSSQSLLYSNGKTYLNWLLQRPGQSPKRLIYLVSKLDSGVPDRFTGSGSGTDFTLKISRVEAEDLGVYYCVQGTRFPWTFGGGTNLEIKRTVAAPSVFIFPPSDEQLKSGTASVVCLLNNFYPREAKVQWKVDNALQSGNSQESVTEQDSKDSTYSLSSTLTLSKADYEKHKVYACEVTHQGLSSPVTKSFNRGEC |  | 39 | 1.02 | 0.679 | no binding | 995 | 0.784 | 0.817 | 0.882 | 108 | 109 | 91 | 54 |  | 
6-B09 (mouse hybridoma antibody) (antibody, mouse IgG2a, kappa) heavy: QVQLKESGPGLVAPSQSLSITCTVSGFSLARYDISWIRQPPGKGLEWLGVIWTGGGTNYNSAFMSRLSISKDNSKSQVFLKMNGLQTDDTAIYYCVSIRYDETYWGQGTLVTVSAAKTTAPSVYPLAPVCGDTTGSSVTLGCLVKGYFPEPVTLTWNSGSLSSGVHTFPAVLQSDLYTLSSSVTVTSSTWPSQSITCNVAHPASSTKVDKKIEPRGPTIKPCPPCKCPAPNLLGGPSVFIFPPKIKDVLMISLSPIVTCVVVDVSEDDPDVQISWFVNNVEVHTAQTQTHREDYNSTLRVVSALPIQHQDWMSGKEFKCKVNNKDLPAPIERTISKPKGSVRAPQVYVLPPPEEEMTKKQVTLTCMVTDFMPEDIYVEWTNNGKTELNYKNTEPVLDSDGSYFMYSKLRVEKKNWVERNSYSCSVVHEGLHNHHTTKSFSRTPG light: QIVLTQSPAIMSASPGEKVTITCSASSSVIYMHWFQQKPGTSPKLWIYATSNLASGVPARFSGSGSGTSYSLTISRMEAEDAATYYCQQRSSYPLTFGAGTKLELKRADAAPTVSIFPPSSEQLTSGGASVVCFLNNFYPKDINVKWKIDGSERQNGVLNSWTDQDSKDSTYSMSSTLTLTKDEYERHNSYTCEATHKTSTSPIVKSFNRNEC |  |  |  |  |  |  |  |  |  |  |  |  |  |  | no binding
1-K17 (mouse hybridoma antibody) (antibody, mouse IgG1, kappa) heavy: QVQLQQPGAELVKPGASVKMSCKASGYTFTSYNMHWVKQTPGQGLEWIGAIYPGNGDTSYNQKFKGKATLTADKSSSTAYMHLSSLTSEDSAVYYCARKGGTPFAYWGQGTLLTVSAAKTTPPSVYPLAPGSAAQTNSMVTLGCLVKGYFPEPVTVTWNSGSLSSGVHTFPAVLESDLYTLSSSVTVPSSPRPSETVTCNVAHPASSTKVDKKIVPRDCGCKPCICTVPEVSSVFIFPPKPKDVLTITLTPKVTCVVVDISKDDPEVQFSWFVDDVEVHTAQTQPREEQFNSTFRSVSELPIMHQDWLNGKEFKCRVNSAAFPAPIEKTISKTKGRPKAPQVYTIPPPKEQMAKDKVSLTCMITDFFPEDITVEWQWNGQPAENYKNTQPIMNTNGSYFVYSKLNVQKSNWEAGNTFTCSVLHEGLHNHHTEKSLSHSPG light: DVVMTQTPLSLPVSLGDQASISCRSSQSLVHSNGNTYLYWYLQKPGQSPKLLIYKVSNRFSGVPDRFSGSGSGTDFTLKISRVEAEDLGVYFCSQSTHVPYTFGGGTKLEIKRADAAPTVSIFPPSSEQLTSGGASVVCFLNNFYPKDINVKWKIDGSERQNGVLNSWTDQDSKDSTYSMSSTLTLTKDEYERHNSYTCEATHKTSTSPIVKSFNRNEC |  |  |  |  |  |  |  |  |  |  |  |  |  |  | no binding
13-E16 (mouse hybridoma antibody) (antibody, mouse IgG2a, kappa) heavy: EVQLVETGGGLVQPKGSLKLSCAASGFTFSTNAMNWVRQAPGKGLEWIARIRSKSNNYATHYADSVKDRFTISRDDSQSILHLQMNNLKNEDTAMYYCVRDSHYYVSTYVGLAWFAYWGQGTLVTVSAAKTTAPSVYPLAPVCGDTTGSSVTLGCLVKGYFPEPVTLTWNSGSLSSGVHTFPAVLQSDLYTLSSSVTVTSSTWPSQSITCNVAHPASSTKVDKKIEPRGPTIKPCPPCKCPAPNLLGGPSVFIFPPKIKDVLMISLSPIVTCVVVDVSEDDPDVQISWFVNNVEVHTAQTQTHREDYNSTLRVVSALPIQHQDWMSGKEFKCKVNNKDLPAPIERTISKPKGSVRAPQVYVLPPPEEEMTKKQVTLTCMVTDFMPEDIYVEWTNNGKTELNYKNTEPVLDSDGSYFMYSKLRVEKKNWVERNSYSCSVVHEGLHNHHTTKSFSRTPG light: QIVLTQSPAIMSASPGEKVTITCSASSSVSYMHWFQQKPGTSPKLWIYSTSNLASGVPARFSGSGSGTSYFLTISRMEAEDAATYYCQQRSSYPYTFGGGTKLERKRADAAPTVSIFPPSSEQLTSGGASVVCFLNNFYPKDINVKWKIDGSERQNGVLNSWTDQDSKDSTYSMSSTLTLTKDEYERHNSYTCEATHKTSTSPIVKSFNRNEC |  |  |  |  |  |  |  |  |  |  |  |  |  |  | no binding
6-B09 chimera (human IgG1) (antibody, also called 6-B09 chimeric antibody) heavy: not shown light: QIVLTQSPAIMSASPGEKVTITCSASSSVIYMHWFQQKPGTSPKLWIYATSNLASGVPARFSGSGSGTSYSLTISRMEAEDAATYYCQQRSSYPLTFGAGTKLELKRTVAAPSVFIFPPSDEQLKSGTASVVCLLNNFYPREAKVQWKVDNALQSGNSQESVTEQDSKDSTYSLSSTLTLSKADYEKHKVYACEVTHQGLSSPVTKSFNRGEC |  | 44 | 0.776 | 0.512 | no binding |  | 0.82 | 0.577 | 0.8 | 89 | 102 | 94 | 32 |  | 
